The target of assay [1] is photosystem I of Chlamydomonas reinhardtii, wild type (Chlamydomonas reinhardtii, UniProt P12154 1-751; P09144 1-735; P12356 63-227). Put plainly: flash-induced absorbance transients at 817 nm.
Assay [2] deals with PsaA (Pisum sativum photosystem I) (Pisum sativum (pea), UniProt P05310 16-758). Put plainly: cryo-EM structure.
Assay [3] concerns the target PsaB (Pisum sativum photosystem I) (Pisum sativum (pea), UniProt P05311 13-734). In words: cryo-EM structure.

Chain of PsaB (Pisum sativum photosystem I) (P05311 13-734): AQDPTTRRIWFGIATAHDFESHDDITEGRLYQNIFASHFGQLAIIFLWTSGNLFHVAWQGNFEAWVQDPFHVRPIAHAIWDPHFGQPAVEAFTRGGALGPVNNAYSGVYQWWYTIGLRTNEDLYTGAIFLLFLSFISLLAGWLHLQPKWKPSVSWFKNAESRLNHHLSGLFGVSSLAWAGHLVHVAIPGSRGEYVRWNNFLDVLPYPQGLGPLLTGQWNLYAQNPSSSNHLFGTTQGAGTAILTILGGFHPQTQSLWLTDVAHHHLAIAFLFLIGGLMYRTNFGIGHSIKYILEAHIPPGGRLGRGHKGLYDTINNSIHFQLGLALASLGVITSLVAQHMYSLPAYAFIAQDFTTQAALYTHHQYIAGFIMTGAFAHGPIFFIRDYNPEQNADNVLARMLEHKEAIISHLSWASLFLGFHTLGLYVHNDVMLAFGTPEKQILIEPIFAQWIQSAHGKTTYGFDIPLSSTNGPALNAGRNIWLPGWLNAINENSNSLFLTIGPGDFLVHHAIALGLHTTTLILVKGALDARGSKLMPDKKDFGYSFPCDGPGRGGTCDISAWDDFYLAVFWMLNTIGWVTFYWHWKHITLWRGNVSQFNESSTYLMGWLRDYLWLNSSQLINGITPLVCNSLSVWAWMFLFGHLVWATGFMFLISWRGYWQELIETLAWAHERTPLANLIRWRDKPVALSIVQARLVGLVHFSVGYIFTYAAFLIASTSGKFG
Chain of PsaA (Pisum sativum photosystem I) (P05310 16-758): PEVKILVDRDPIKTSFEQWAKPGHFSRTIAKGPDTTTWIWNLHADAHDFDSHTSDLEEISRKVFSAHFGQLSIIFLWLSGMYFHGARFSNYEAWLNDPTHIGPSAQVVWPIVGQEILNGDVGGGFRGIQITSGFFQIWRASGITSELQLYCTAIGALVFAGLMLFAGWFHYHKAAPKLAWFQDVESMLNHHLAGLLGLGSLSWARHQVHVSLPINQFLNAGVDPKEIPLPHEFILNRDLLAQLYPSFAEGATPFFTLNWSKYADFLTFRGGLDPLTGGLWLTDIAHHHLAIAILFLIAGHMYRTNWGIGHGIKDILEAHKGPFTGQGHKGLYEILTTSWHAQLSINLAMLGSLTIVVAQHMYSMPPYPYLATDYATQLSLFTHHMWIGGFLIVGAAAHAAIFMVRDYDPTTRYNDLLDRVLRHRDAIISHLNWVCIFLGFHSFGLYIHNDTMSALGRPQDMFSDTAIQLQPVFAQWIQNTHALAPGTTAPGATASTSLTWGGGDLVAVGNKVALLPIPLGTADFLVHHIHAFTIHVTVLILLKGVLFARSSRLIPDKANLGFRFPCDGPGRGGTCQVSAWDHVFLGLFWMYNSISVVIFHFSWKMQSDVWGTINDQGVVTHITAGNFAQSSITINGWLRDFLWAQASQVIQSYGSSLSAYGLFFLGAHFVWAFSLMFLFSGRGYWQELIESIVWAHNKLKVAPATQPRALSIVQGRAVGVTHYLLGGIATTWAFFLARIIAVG

B1: plastocyanin used with Chlamydomonas reinhardtii PSI (natural protein, UniProt P18068 48-145, looked up)
chain: DATVKLGADSGALEFVPKTLTIKSGETVNFVNNAGFPHNIVFDEDAIPSGVNADAISRDDYLNAPGETYSVKLTAAGEYGYYCEPHQGAGMVGKIIVQ
As usually defined, the Kd is the free concentration of one partner at which half of the binding sites on the other are occupied at equilibrium, for simple one-to-one binding. In turn, B1 registered a Kd in assay [1] of 88 µM.

B2: plastocyanin (Pisum sativum), reduced (natural protein, Pisum sativum (pea), UniProt P16002 70-168, looked up)
chain: VEVLLGASDGGLAFVPSSLEVSAGETIVFKNNAGFPHNVVFDEDEIPAGVDASKISMPEEDLLNAPGETYSVKLDAKGTYKFYCSPHQGAGMVGQVTVN
Take B2: the binding result in assay [2] and in assay [3] was “binds” throughout.

The values above are taken from doi:10.1101/2021.02.03.429574 (bioRxiv, 2021).
